{
  "source": "paper PMC5377238",
  "proteins": {"B1": {"name": "human S-adenosylmethionine decarboxylase (hAdoMetDC) (Homo sapiens) (protein)", "chain 1": "MEAAHFFEGTEKLLEVWFSRQQPDANQGSGDLRTIPRSEWDILLKDVQCSIISVTKTDKQEAYVLSE", "chain 2": "SSMFVSKRRFILKTCGTTLLLKALVPLLKLARDYSGFDSIQSFFYSRKNFMKPSHQGYPHRNFQEEIEFLNAIFPNGAAYCMGRMNSDCWYLYTLDFPESRVISQPDQTLEILMSELDPAVMDQFYMKDGVTAKDVTRESGIRDLIPGSVIDATMFNPCGYSMNGMKSDGTYWTIHITPEPEFSYVSFETNLSQTSYDDLIRKVVEVFKPGKFVTTLFVNQSSKCRTVLASPQKIEGFKRLDCQSAMFNDYNFVFTSFAKKQQQQQS"}},
  "substrate": "C[S+](CC[C@H](N)C(=O)[O-])C[C@H]1O[C@@H](n2cnc3c(N)ncnc32)[C@H](O)[C@@H]1O",
  "test": "purified protein",
  "settings": "pyruvoyl group (converted Ser68)",
  "data": [
    {"protein": "B1", "values": [
      {"measurement": "Km", "result": "3.1 ± 1.8", "unit": "µM"}
    ]}
  ]
}
